Test results reported in patent US20160143998A1 (Novo Nordisk, published 2016).
*1 amine or outer side, *2 acyl side, *3 side chain or, on linkers, in order; H or OH if unused. Where no end group is shown, it is not given here. Side-chain parts run from the residue outwards. [ ]: non-standard residue; d: D form. The star is where a group is joined. code 2xAEEA = O=C(COCCOCCN[*:1])NCCOCCOCC(=O)[*:2]; C20 diacid = O=C(O)CCCCCCCCCCCCCCCCCCC(=O)*; γGlu = O=C(O)[C@H](CCC(=O)[*:2])N[*:1]; Desaminohistidyl = O=C(CCc1c[nH]cn1)*; Trx = NC[C@H]1CC[C@H](C(=O)O)CC1; code LysOEG = not defined here; Lys(Bis) = not defined here; AEEA = NCCOCCOCC(=O)O; Aib = CC(C)(N)C(=O)O

Experiments:
[1] = target: T1, human GLP-1 receptor (human, UniProt P43220 24-463); assay: SPA competition vs 125I-GLP-1(7-36)NH2, hGLP-1R BHK membranes, high HSA (2.0%)
T1 construct: whole, on cells
Method: (§1) For the receptor binding assay in the presence of low HSA (0.005%) 50 μl of the assay buffer was added to each well of an assay plate. […] For the receptor binding assay in the presence of high HSA (2%) 50 μl of the 8% albumin stock was added to each well of an assay plate. […] Cell membrane aliquots were thawed and diluted to their working concentration. Fifty μl were added to each well in the assay plate. […] WGA SPA beads were suspended in assay buffer at 20 mg/ml. The suspension was diluted to 10 mg/ml in assay buffer just prior to addition to the assay plate. Fifty μl were added to each well in the assay plate. […] A 25 μl aliquot was reserved for measuring total counts/well. […] The assay plate was incubated for 2 h at 30° C. […] The assay plate was centrifuged for 10 min. […] The assay plate was read in a Packard TopCount NXT instrument.

[2] = target: T1, human GLP-1 receptor; assay: SPA competition vs 125I-GLP-1(7-36)NH2, hGLP-1R BHK membranes, low HSA
Method: as §1

[3] = target: T1, human GLP-1 receptor; assay: cell-based or functional assay

Binder | IC50 [1] [nM] | IC50 [2] [nM] | EC50 (pM), in vitro potency, CRE luciferase reporter gene assay in BHK cells expressing the human GLP-1 receptor [3] [pM]
[Desaminohistidyl][Aib]EGTFTSDVSSYLEEQAAREFIAWLVRGRGGK([Lys(Bis)-code 2xAEEA-AEEA-AEEA-AEEA-γGlu-Trx-C20 diacid]) (reading uncertain; also: printed as [Imp7,Aib8,Glu22,Arg26,Arg34]-GLP-1-(7-37)-peptidyl-Gly-N{Epsilon}[(2S)-2,6-bis[[2-[2-[2-[[2-[2-[2-[[2-[2-[2-[[2-[2-[2-[[(4S)-4-carboxy-4-[[4-[(19-carboxynonadecanoylamino)methyl]cyclohexanecarbonyl]amino]butanoyl]amino]ethoxy]ethoxy]acetyl]amino]ethoxy]ethoxy]acetyl]amino]ethoxy]ethoxy]acetyl]amino]ethoxy]ethoxy]acetyl]amino]hexanoyl]Lys, Side chain read from the name: eps-Lys(Bis) branched linker, each leg C20 diacid-Trx-gGlu-4xOEG) | 54 | 0.91 | 16
H[Aib]EGTFTSDVSSYLEEQAAREFIAWLVRGRGSSGAPK([Lys(Bis)-code 2xAEEA-AEEA-γGlu-Trx-C20 diacid]) (reading uncertain, Side chain read from the name: eps-Lys(Bis) branched linker, each leg C20 diacid-Trx-gGlu-2xOEG) | 28 | 0.99 | 99
H[Aib]EGTFTSDVSSYLEEQAAREFIAWLVRGRGSSAEGK([Lys(Bis)-code 2xAEEA-AEEA-γGlu-Trx-C20 diacid]) (reading uncertain, Side chain read from the name: eps-Lys(Bis) branched linker, each leg C20 diacid-Trx-gGlu-2xOEG) | 63 | 3.2 | 12
H[Aib]EGTFTSDVSSYLEEQAAREFIAWLVRGRGSSEAEK([Lys(Bis)-code 2xAEEA-AEEA-γGlu-Trx-C20 diacid]) (reading uncertain, Side chain read from the name: eps-Lys(Bis) branched linker, each leg C20 diacid-Trx-gGlu-2xOEG) | 85 | 3.1 | 19
H[Aib]EGTFTSDVSSYLEEQAAREFIAWLVRGRGSSPAAK([Lys(Bis)-code 2xAEEA-AEEA-γGlu-Trx-C20 diacid]) (reading uncertain, Side chain read from the name: eps-Lys(Bis) branched linker, each leg C20 diacid-Trx-gGlu-2xOEG) | 51 | 4.8 | 22
H[Aib]EGTFTSDVSSYLEEQAAREFIAWLVRGRGSK([Lys(Bis)-code 2xAEEA-AEEA-γGlu-Trx-C20 diacid]) (reading uncertain; also: printed as [Aib8,Glu22,Arg26,Arg34]-GLP-1-(7-37)-peptidyl-Ser-N{Epsilon}[(2S)-2,6-bis[[2-[2-[2[[2-[2-[2-[[(4S)-4-carboxy-4-[[4-[(19-carboxynonadecanoylamino)methyl]cyclohexanecarbonyl]amino]butanoyl]amino]ethoxy]ethoxy]acetyl]amino]ethoxy]ethoxy]acetyl]amino]hexanoyl]Lys, Side chain read from the name: eps-Lys(Bis) branched linker, each leg C20 diacid-Trx-gGlu-2xOEG) | 83 | 0.61 | 44
H[Aib]EGTFTSDVSSYLEEQAAREFIAWLVRGRGEPPGK([code LysOEG-AEEA-γGlu-Trx-C20 diacid)(OEG-AEEA-γGlu-Trx-C20 diacid]) (reading uncertain, Side chain read from the name: eps-Lys(Bis) branched linker, each leg C20 diacid-Trx-gGlu-2xOEG) | 50 | 2.9 | 15
H[Aib]EGTFTSDVSSYLEEQAAREFIAWLVRGRGGGSK([code LysOEG-AEEA-γGlu-Trx-C20 diacid)(OEG-AEEA-γGlu-Trx-C20 diacid]) (reading uncertain; also: printed as [Aib8,Glu22,Arg26,Arg34]-GLP-1-(7-37)-peptidyl-Gly-Gly-Ser-N{Epsilon}[(2S)-2,6-bis[[2-[2-[2-[[2-[2-[2-[[(4S)-4-carboxy-4-[[4-[(19-carboxynonadecanoylamino)methyl]cyclohexanecarbonyl]amino]butanoyl]amino]ethoxy]ethoxy]acetyl]amino]ethoxy]ethoxy]acetyl]amino]hexanoyl]Lys, Side chain read from the name: eps-Lys(Bis) branched linker, each leg C20 diacid-Trx-gGlu-2xOEG) | 59 | 1.93 | 87
H[Aib]EGTFTSDVSSYLEEQAAREFIAWLVRGRGGGGSK([code LysOEG-AEEA-γGlu-Trx-C20 diacid)(OEG-AEEA-γGlu-Trx-C20 diacid]) (reading uncertain, Side chain read from the name: eps-Lys(Bis) branched linker, each leg C20 diacid-Trx-gGlu-2xOEG) | 175 | 1.64 | 94
H[Aib]EGTFTSDVSSYLEEQAAREFIAWLVRGRGPAEEK([Lys(Bis)-code 2xAEEA-AEEA-γGlu-Trx-C20 diacid]) (reading uncertain, Side chain read from the name: eps-Lys(Bis) branched linker, each leg C20 diacid-Trx-gGlu-2xOEG) | 68 | 2.9 | 14
H[Aib]EGTFTSDVSSYLEEQAAREFIAWLVRGRGK (not fully specified (residue 32); printed as N{Alpha}([Aib8,Glu22,Arg26,Arg34]-GLP-1-(7-37)-peptidyl)-N{Epsilon}[(2S)-2,6-bis[[2-[2-[2-[[2-[2-[2-[[(4S)-4-carboxy-4-[[1-(19-carboxynonadecanoyl)piperidine-4-carbonyl]amino]butanoyl]amino]ethoxy]ethoxy]acetyl]amino]ethoxy]ethoxy]acetyl]amino]hexanoyl]Lys, Side chain read from the name: eps-Lys(Bis) branched linker, each leg C20 diacid-Inp-gGlu-2xOEG) | 68 | 0.76 | 55
H[Aib]EGTFTSDVSSYLEEQAAREFIAWLVRGRGK([code LysOEG-AEEA-γGlu-Trx-C20 diacid)(OEG-AEEA-γGlu-Trx-C20 diacid]) (reading uncertain; also: printed as N{Alpha}([Aib8,Glu22,Arg26,Arg34]-GLP-1-(7-37)-peptidyl)-N{Epsilon}[(2S)-2,6-bis[[2-[2-[2-[[2-[2-[2-[[(4S)-4-carboxy-4-[[4-[(19-carboxynonadecanoylamino)methyl]cyclohexanecarbonyl]amino]butanoyl]amino]ethoxy]ethoxy]acetyl]amino]ethoxy]ethoxy]acetyl]amino]hexanoyl]Lys, Side chain read from the name: eps-Lys(Bis) branched linker, each leg C20 diacid-Trx-gGlu-2xOEG) | 78 | 0.9 | 70
H[Aib]EGTFTSDVSSYLEEQAAREFIAWLVRGRPK([code LysOEG-AEEA-AEEA-AEEA-AEEA-AEEA-γGlu-Trx-C20 diacid)(OEG-AEEA-AEEA-AEEA-AEEA-AEEA-γGlu-Trx-C20 diacid]) (reading uncertain, Side chain read from the name: eps-Lys(Bis) branched linker, each leg C20 diacid-Trx-gGlu-6xOEG) | 84 | 0.57 | 12
H[Aib]EGTFTSDVSSYLEEQAAREFIAWLVRGRGK([code LysOEG-AEEA-γGlu-C20 diacid)(OEG-AEEA-γGlu-C20 diacid]) (reading uncertain; also: printed as N{Alpha}([Aib8,Glu22,Arg26,Arg34]-GLP-1-(7-37)-peptidyl)-N{Epsilon}[(2S)-2,6-bis[[2-[2-[2-[[2-[2-[2-[[(4S)-4-carboxy-4-(19-carboxynonadecanoylamino)butanoyl]amino]ethoxy]ethoxy]acetyl]amino]ethoxy]ethoxy]acetyl]amino]hexanoyl]Lys, Side chain read from the name: eps-Lys(Bis) branched linker, each leg C20 diacid-gGlu-2xOEG) | 64 | 0.45 | 25
H[Aib]EGTFTSDVSSYLEEQAAREFIAWLVRGRGAEAPK([code LysOEG-AEEA-γGlu-Trx-C20 diacid)(OEG-AEEA-γGlu-Trx-C20 diacid]) (reading uncertain, Side chain read from the name: eps-Lys(Bis) branched linker, each leg C20 diacid-Trx-gGlu-2xOEG) | 27 | 1.7 | 13
H[Aib]EGTFTSDVSSYLEEQAAREFIAWLVRGRGGSK([code LysOEG-AEEA-γGlu-Trx-C20 diacid)(OEG-AEEA-γGlu-Trx-C20 diacid]) (reading uncertain; also: printed as [Aib8,Glu22,Arg26,Arg34]-GLP-1-(7-37)-peptidyl-Gly-Ser-N{Epsilon}[(2S)-2,6-bis[[2-[2-[2-[[2-[2-[2-[[(4S)-4-carboxy-4-[[4-[(19-carboxynonadecanoylamino)methyl]cyclohexanecarbonyl]amino]butanoyl]amino]ethoxy]ethoxy]acetyl]amino]ethoxy]ethoxy]acetyl]amino]hexanoyl]Lys, Side chain read from the name: eps-Lys(Bis) branched linker, each leg C20 diacid-Trx-gGlu-2xOEG) | 25 | 0.74 | 51
